Assay results as given in US20140256614.

Target: T1, MK2-activating peptide (transduction domain YARAAARQARA coupled to a Kaposin-derived region)
T1 chain: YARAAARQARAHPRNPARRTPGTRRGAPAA

B1: MK2 (endogenous, in mouse embryonic fibroblasts, MEF) (protein)
chain: MLSGSPGQTPPAPFPSPPPPAPAQPPPPFPQFHVKSGLQIRKNAITDDYKVTSQVLGLGINGKVLRIFDKRTQQKFALKMLQDCPKARREVELHWRASQCPHIVHIVDVYENLYAGRKCLLIVMECLDGGELFSRIQDRGDQAFTEREASEIMKSIGEAIQYLHSINIAHRDVKPENLLYTSKRPNAILKLTDFGFAKETTSHNSLTTPCYTPYYVAPEVLGPEKYDKSCDMWSLGVIMYILLCGYPPFYSNHGLAISPGMKTRIRMGQYEFPNPEWSEVSEEVKMLIRNLLKTEPTQRMTITEFMNHPWIMQSTKVPQTPLHTSRVLKEDKERWEDVKEEMTSALATMRVDYEQIKIKKIEDASNPLLLKRRKKARAVEDAALAH
In the case of B1, the “phosphorylated HSP27 by immunoblot, time course at 50 µM peptide, MEF” value is reported as “significant MK2 activation was observed by 15 minutes of treatment”.
